{"source": "patent US10494415B2", "about": "“Insulin-like growth factor 2 (IGF2) binding agents” (Cancer Research Technology Limited, priority 2015, dated 2019)", "key": {"[1]": {"system": "SKNMC-IGF2^104 cells", "test": "IGF2-TRAP synthetic lethality screen (resazurin viability)", "assay_type": "cell-based, human", "settings": "fixed concentration of IGF2-TRAP alone, assay end point of 72 hrs", "description": "For synthetic lethality screens (Target Discovery Institute, University of Oxford), either 2,500 or 5,000 SKNMC-IGF2104-IRES-luc cells were plated in medium containing 0.5% charcoal stripped FBS in 384 well plates and the IGF2-TRAP was added 24 h later to half of the plates. Using automated dispensing 307 oncology drugs that have been tested in man (TDI expanded Oncology Drug library) were added to cells 3 hrs later 10 μM, 1 μM, 100 nM and 10 nM, in the presence and absence of 250 nM IGF2-TRAP. After 48 hr of incubation, resazurin was added to a final concentration of 10 μg/mL and the fluorescence (Ex: 560 nm, Em: 590 nm) recorded at 2 hr. […] Pearson's product-moment correlation coefficient (r) was calculated to determine replicate correlation. […]\nThe interaction score was calculated where v was the viability readout for the drug condition, x^− was the sample mean of the negative controls and s was the sample standard deviation of the negative controls, z was calculated as z_treatment=(v−x^−)/s. z_(no_IT) was calculated from PBS control plates, comparing ‘drug d’ to same-plate negative controls ‘cells+DMSO’. z_IT was calculated from treated plates, comparing ‘drug d+IGF2-TRAP (IT)’ to same-plate negative controls ‘cells+IT+DMSO’. […] Interaction scores were calculated for each replicate r_(d,1)/r_(d,2)/r_(d,3) independently. […]"}, "[2]": {"system": "IGF2^1-67-induced hypoglycaemia", "test": "IGF2-induced hypoglycaemia mouse model", "assay_type": "in vivo", "settings": "co-injected", "description": "All animal experiments were approved by the animal use ethical committee of Oxford University and fully complied with UK Home Office guidelines (PPL 30/2695). Wild-type C57BL/6J and 129S2 mice were used throughout. Mice were anaesthetised using a rising concentration of isoflurane in oxygenated air and maintained using 2% isoflurane with 2 L min^−1 oxygen. Blood glucose measurements were taken using an Advantage diabetic glucose meter (Roche Diagnostics, Burgess Hill, UK). In order to test the direct inhibition of IGF2-induced hypoglycaemia by Fc-domain 11^AB5, blood glucose levels were allowed to normalise for 30 min prior to taking a baseline blood glucose reading, then either 1 mg kg^−1 IGF2 only (R&D systems), […], Fc-domain 11^RHH, or Fc-domain 11^I1572A ([…]) was injected. Blood glucose measurements were taken every 10 min for the following hour. For the Fc-domain 11^AB5 mouse preloading experiment, 11.7 mg kg^−1 Fc-domain 11^AB5 or PBS, as negative control, was injected immediately after induction of anaesthesia, 30 mins later a baseline blood glucose reading was taken and 1 mg kg^−1 IGF2 ([…]) was injected, readings were then taken every 10 min for the following hour. For the mouse IGF2 preloading experiment, 1 mg kg^−1 IGF2 was injected immediately after induction of anaesthesia, 30 min later a baseline blood glucose reading was taken and either 11.7 mg kg^−1 Fc-domain 11^AB5 ([…]) or PBS was injected, readings were then taken every 10 min for the following hour."}}}
{"molecule": "Fc-domain 11^AB5-RHH: Fc-fusion of domain 11^AB5-RHH (IGF2-TRAP); IgG2 Fc form purified from CHO cells used for xenografts (protein, left off: a dimerising Fc or GST, Fc-fusion of domain 11^AB5-RHH (IGF2-TRAP); IgG2 Fc form purified from CHO cells used for xenografts) NEHDDCQVTNPSTGHLFDLSSLSGRAGFTAAYAKGWGVYMSICGENENCPPGVGACFGRTRISVGKANKRLRYVDQVLQLVYKDGSHCPSKHGLSYKSVISFVCRPEAGPTNRPMLISLDKQTCTLFFSWHTPLACEQAT", "values": [{"measurement": "reduction in cell viability", "setting": "[1]", "result": "10-20%"}, {"measurement": "IGF2-induced hypoglycaemia (blood glucose)", "setting": "[2]; molar ratio 1:0.23", "result": "more efficient IGF2 antagonist than Fc-domain 11^AB5"}, {"measurement": "IGF2-induced hypoglycaemia (blood glucose)", "setting": "[2]; molar ratio 1:0.23, listed as domain 11^AB5-RHH", "result": "significantly counteracted IGF2-induced hypoglycaemia"}, {"measurement": "IGF2-induced hypoglycaemia (blood glucose)", "setting": "[2]; molar ratio 1:0.5", "result": "abrogation"}]}
